Data taken from US20210009663A1 (published 2021).

Legend:
[1] = biological target: T1, Zika virus envelope protein, strain H/PF/2013 (French Polynesia 2013) (Zika virus); experiment: cell-based or functional assay
[2] = biological target: T1, Zika virus envelope protein, strain …

T1 sequence (A0A024B7W1 291-794): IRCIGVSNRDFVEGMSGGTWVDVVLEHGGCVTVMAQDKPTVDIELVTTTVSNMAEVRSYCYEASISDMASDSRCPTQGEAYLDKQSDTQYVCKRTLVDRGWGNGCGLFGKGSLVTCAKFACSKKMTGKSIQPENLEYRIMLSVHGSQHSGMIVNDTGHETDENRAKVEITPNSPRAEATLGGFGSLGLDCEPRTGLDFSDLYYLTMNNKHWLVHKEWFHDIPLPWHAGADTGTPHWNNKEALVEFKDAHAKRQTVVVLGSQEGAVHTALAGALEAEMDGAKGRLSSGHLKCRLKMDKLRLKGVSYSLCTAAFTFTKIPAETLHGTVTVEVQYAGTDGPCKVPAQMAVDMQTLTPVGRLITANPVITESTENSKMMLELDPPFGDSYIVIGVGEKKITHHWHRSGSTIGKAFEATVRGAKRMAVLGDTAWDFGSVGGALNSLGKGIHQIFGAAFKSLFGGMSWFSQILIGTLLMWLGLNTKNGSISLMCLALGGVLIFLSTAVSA

Binder | ADE in THP1.2S cells, viral titers at peak enhancement [1] [fold] | PRNT50 [1] [µg/mL] | Kd [2] [µg/mL]
mAb 8 (antibody, V domains shown) VH: EVQLLESGGGLVQPGGSLRLSCAASGFSFSTYSMHWVRQAPGKGLEWVSAISGEGDSAYYADSVKGRFTISRDNSKNTLYLQMNKVRAEDTAVYYCVGGYSNFYYYYTMDAWGQGTMVTVSS VL: DIVMTQSPASLSLSPGERATLSCRATQSISTFLAWYQQKPGQAPRLLIYDASTRASGIPARFSGSRSGTDFTLTITRLEPEDFAVYYCQQRYNWPPYSFGQGTKLEIK | ≥ 3 | 5.09 | –
fusion loop targeting pan-flavivirus antibody 4G2 (antibody, V domains shown) VH: EVQLQQSGPELVKPGTSVKISCKTSGYTFTEYTIHWVKQSHGKSLAWIGGIDPNSGGTNYSPNFKGKATLTVDKSSSTAYMDLRSLSSEDSAVYFCARIYHYDGYFDVWGAGTAVTVSS VL: DIKMTQSPSSMYASLGERVTITCKASQDINSYLTWFQQKPGKSPKTLIYRANRLIDGVPSRFSGSGSGQDYSLTISSLDYEDMGIYYCLQYDEFPPTFGGGTKLEIKR | – | – | 10.3
